In patent US20100104509A1 (Bristol-Myers Squibb, published 2010):
Substitutions are numbered along the chain they refer to.

T1: human CD19 expressed on the cell surface (human, UniProt P15391 20-556)
T1 construct: CHO cells were transfected with the full-length cDNA encoding the transmembrane form of CD19; Raji, Daudi and ARH-77 cells carry endogenous CD19; also called CD19 on Raji B tumor cells; CD19 on Daudi B tumor cells
T1 sequence: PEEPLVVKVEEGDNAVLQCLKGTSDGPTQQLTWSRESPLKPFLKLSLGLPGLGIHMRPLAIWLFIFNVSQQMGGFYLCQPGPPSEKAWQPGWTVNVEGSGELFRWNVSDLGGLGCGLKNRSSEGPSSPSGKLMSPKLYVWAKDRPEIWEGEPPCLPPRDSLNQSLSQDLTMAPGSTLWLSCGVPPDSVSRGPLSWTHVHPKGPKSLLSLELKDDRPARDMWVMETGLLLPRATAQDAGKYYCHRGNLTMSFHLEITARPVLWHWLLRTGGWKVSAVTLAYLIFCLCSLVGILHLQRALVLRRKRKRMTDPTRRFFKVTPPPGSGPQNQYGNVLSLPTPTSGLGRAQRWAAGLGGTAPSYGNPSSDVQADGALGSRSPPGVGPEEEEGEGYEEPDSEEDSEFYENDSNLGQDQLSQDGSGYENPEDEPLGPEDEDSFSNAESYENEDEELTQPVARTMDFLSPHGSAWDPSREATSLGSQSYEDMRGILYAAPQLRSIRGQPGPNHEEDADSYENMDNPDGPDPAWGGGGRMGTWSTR

B1: human monoclonal antibody 47G4 (antibody, V domains shown)
VH: QVQLVQSGAEVKKPGSSVKVSCKDSGGTFSSYAISWVRQAPGQGLEWMGGIIPIFGTTNYAQQFQGRVTITADESTSTAYMELSSLRSEDTAVYYCAREAVAADWLDPWGQGTLVTVSS
VL: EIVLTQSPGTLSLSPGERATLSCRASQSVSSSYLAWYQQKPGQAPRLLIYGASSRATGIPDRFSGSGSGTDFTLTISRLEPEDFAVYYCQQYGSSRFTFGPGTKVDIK
notes: Human kappa antibody; It was 125I-labelled in the Scatchard assay; also called HuMAb 47G4; CD19 HuMAb 47G4
B2: human monoclonal antibody 21D4 (antibody, V domains shown)
VH: EVQLVQSGAEVKKPGESLKISCKGSGYSFSSSWIGWVRQMPGKGLEWMGIIYPDDSDTRYSPSFQGQVTISADKSIRTAYLQWSSLKASDTAMYYCARHVTMIWGVIIDFWGQGTLVTVSS
VL: AIQLTQSPSSLSASVGDRVTITCRASQGISSALAWYQQKPGKAPKLLIYDASSLESGVPSRFSGSGSGTDFTLTISSLQPEDFATYYCQQFNSYPYTFGQGTKLEIK
notes: Fully human antibody from a KM mouse hybridoma, kappa light chain; also called HuMAb 21D4; parental anti-CD19 antibody 21D4
B3: human monoclonal antibody 3C10 (antibody, V domains shown)
VH: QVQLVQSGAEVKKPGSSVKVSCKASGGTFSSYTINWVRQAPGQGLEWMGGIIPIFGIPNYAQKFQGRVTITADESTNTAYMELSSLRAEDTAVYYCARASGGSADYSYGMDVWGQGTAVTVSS
VL: B2 VL with A1D, L4M, A32W, G41E, L46S, D50A, E55Q, F91Y, N92K, S93R
B4: 5G7-N19K (antibody, V domains shown)
VH: B2 VH with S30T, S32Y, D54G, R77N, H99G, T101S, I108M, F110V, L116T
VL: B2 VL with Y96W, L104V
notes: also called 5G7 with N-I-S changed to K-I-S
B5: human monoclonal antibody 13F1 (antibody, V domains shown)
VH: EVQLVQSGAEVKKPGESLQISCKGSGYTFTNYWIAWVRQMPGKGLEWMGIIYPGDSDTRYSPSFQGQVTISADKSISTAYLQWSGLKASDTAMYYCARQGYSSGWRSYYGMGVWGQGTTVTVSS
VL: B2 VL with Y96H
B6: human monoclonal antibody 21D4a (antibody, V domains shown)
VH: B2 VH
VL: B2 VL with Y96F, Q100P, L104V, E105D
notes: Same heavy chain as 21D4, paired with the second light chain made by the 21D4 hybridoma
B7: human monoclonal antibody 5G7 (antibody, V domains shown)
VH: B2 VH with K19N, S30T, S32Y, D54G, R77N, H99G, T101S, I108M, F110V, L116T
VL: B2 VL with Y96W, L104V
modifications: N-linked carbohydrate in the variable (Fab) region at the N-I-S motif starting at position 19
B8: 5G7-N19Q (antibody, V domains shown)
VH: B2 VH with K19Q, S30T, S32Y, D54G, R77N, H99G, T101S, I108M, F110V, L116T
VL: B2 VL with Y96W, L104V
notes: Glycosylation-site variant of 5G7; also called 5G7 with N-I-S changed to Q-I-S

biological target: T1, human CD19 expressed on the cell surface; assay: Scatchard analysis; 125I-labelled antibody on Raji cells, 4 °C
Experimental: Raji cells were obtained from ATCC (Accession #CCL-86) and grown in RPMI containing 10% fetal bovine serum (FBS). The cells were washed twice with RPMI containing 10% FBS at 4° C. and the cells were adjusted to 4×10⁷ cells/ml in RPMI media containing 10% fetal bovine serum (binding buffer containing 24 mM Tris pH 7.2, 137 mM NaCl, 2.7 mN KCl, 2 mM glucose, 1 mM CaCl₂, 1 mM MgCl₂, 0.1% BSA). Millipore plates (MAFB NOB) were coated with 1% nonfat dry milk in water and stored a 4° C. overnight. The plates were washed with binding buffer and 25 μl of unlabeled antibody (1000-fold excess) in binding buffer was added to control wells in a Millipore 96 well glass fiber filter plate (non-specific binding NSB). Twenty-five microliters of buffer alone was added to the maximum binding control well (total binding). […] The plates were incubated for 2 hours at 200 RPM on a shaker at 4° C. At the completion of the incubation the Millipore plates were washed three times with 0.2 ml of cold wash buffer (24 mM Tris pH 7.2, 500 mM NaCl, 2.7 mN KCl, 2 mM glucose, 1 mM CaCl₂, 1 mM MgCl₂, 0.1% BSA). The filters were removed and counted in a gamma counter. Evaluation of equilibrium binding was performed using single site binding parameters with the Prism software (San Diego, Calif.).

Binder	Kd
B1	~12 nM
B2	~2.14 nM

biological target: T1, human CD19 expressed on the cell surface; assay: Flow cytometry on CHO cells transfected with human CD19, GMFI
Experimental: (§1) Binding of the CD19 HuMAbs by flow cytometry to the B cell tumor lines Raji and Daudi, or to a CHO-CD19 transfected cell line was assessed. CHO cells were transfected with an expression plasmid containing the full length cDNA encoding the transmembrane form of CD19. […] A known murine anti-CD19 antibody was used as a positive control. The cells were washed and detected by either a phycoerythrin-labeled anti-human or anti-mouse secondary antibody and analyzed by flow cytometry. The results for binding to the CHO-CD19 cell line, Daudi B cell line, Raji B cell line and an expanded binding set against the Raji B cell line are shown in FIGS. 25A, 25B, 25C and 25D, respectively. […] All results are shown as measured by the geometric mean fluorescent intensity (GMFI) of staining.

Binder	EC50 (read off the curve)
B2	~0.1 µg/mL

biological target: T1, human CD19 expressed on the cell surface; assay: Raji direct binding FACS, Geo Mean; unit from the concentration axis
Experimental: as §1

Binder	EC50
B3	0.24 µg/mL
B4	0.224 µg/mL
B5	0.266 µg/mL
B6	0.129 µg/mL
B2	0.141 µg/mL
B7	0.188 µg/mL
B8	0.217 µg/mL

biological target: T1, human CD19 expressed on the cell surface; assay: FACS competition on Raji cells: unlabeled antibody titrated against biotinylated 21D4 at 0.3 ug/mL, Geo Mean (PE); unit from the concentration axis

Binder	EC50
B3	0.628 nM
B4	2.1 nM
B5	1.99 nM
B6	0.694 nM
B2	0.655 nM
B7	2.45 nM
B8	2.16 nM

biological target: T1, human CD19 expressed on the cell surface; assay: FACS competition on Raji cells: unlabeled antibody titrated against biotinylated 21D4a at 0.3 ug/mL, Geo Mean (PE); unit from the concentration axis

Binder	EC50
B3	0.686 nM
B4	2.38 nM
B5	1.97 nM
B6	0.767 nM
B2	0.832 nM
B7	2.85 nM
B8	2.63 nM
